These sequences were tested on MS2 coat protein (assay: apparent KD of MS2 coat protein; higher = weaker reporter binding). Conditions: Eterna round: R107; input ligand: arginine 13.2 mM.
Protocol: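 RNA-MaP round R107: designed RNA switches with theophylline, tryptophan, arginine or FMN aptamers are transcribed on-chip within common flanks. They are titrated with SNAP-549-labelled MS2 coat protein in RNA-MaP buffer (100 mM Tris pH 7.5, 80 mM KCl, 4 mM MgCl2), without ligand or with the indicated ligand. Median apparent KD per design.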

Row | Sequence | apparent KD of MS2 coat protein [nM]
1 | CGUCGAAACUGAAGGAGCGAGAUGACAACAUUGGGUCUAACAUGAGGAUCACCCAUGUAAUCUCAGGUAGGUCGCGGUGACAACA [Exclusion Arginine B GF 17] | 40.1
2 | AACAUGAGGAUCACCCAUGUGUCCUCGAAACGAGGACCGGUACGGCCGCCACUCGAAAGGUGUUGACGAAAAGUCAGCACCAAAA [Mat - Exclusion - Trytophan A - D15] | 122
3 | UGUAUGGACUGAAGGAGCGCAUCAAAAUAACAUGAGGAUCACCCAUGUAAGGCGAAAGCCGUGCAGGUAGGUCGCAGUCCAUACU [ArgBX 3] | 14.9
4 | GAGCUGAUGUAGGGUGGAUAUCCUUGAGAUACCAGUACAGAAAUGUACCCUUGGCAGCUCUUCCUUACAUGAGGAUCACCCAUGU [Ex Theophylline A 25] | 18.9
5 | UGAGUUCGCUGAUGGGCUAAGUCAGGUGAUACCAGCCACUCCCGCGGCCCUUGGCAGCACAUGAGGAUCACCCAUGUAGAACUUG [Vexetela] | 16
6 | GGGAAUGAACGUGAUACCAGAGAUCCGGUCUCCGUCAAUAUACAUGAGGAUCACCCAUGUCUCCCUUGGCAGCACCGUCAUCGGG [Exclusion Theophylline B GF 28] | 14.3
7 | CAGAACAUGAGGAUCACCCAUGUAAACGACCGAGGACCGGUACGGCCGCCACUCGAUAUGUCUUGAGGGAGAUAUGGAUUCACAU [theeternabot_sameState_MS2_Trp_A_46] | 23
8 | GGGUCCGUCGGAAGGAGCGACAUGAGGAUCACCCAUGUCUCCCGUUAUGGGAGUUCUUUAGGUCAGGUAGGUCGCCGGCGGGUCC [#1 Exclusion - Arginine B Attempt #13 (Inspired by Omei)] | 65
9 | ACACAUGAGGAUCACCCAUGUGCGCUGGAAGGAGCGCAGAAUCAUGCAGGUAGGUCGCCAGUGCCCUCUACUAAAGGGAAAAGAG [Diatsoceri] | 66.5
10 | UAAUGUGAGAGAAGGAGCGGAGGUCUCGUUACAACAUGAGGAUCACCCAUGUAACGUACCGUCCAGGUAGGUCGCUCUCGGGCGC [lvacmullin] | 17.4
11 | GGAACGAUCACUUCUUUAUCUAAGGCGGAUACCAGUCCUCGGUUUGACCCUUGGCAGCCGACAACAUGAGGAUCACCCAUGUUCU [theeternabot_exclusion_MS2_Theo_A_25] | 12.5
12 | GGGCGCGAGACGGCCGCCACUACACAUGAGGAUCACCCAUGUAUGGCAACAUGAGGAUCUGCCAUUAGGACCGGGUCAGGGCCCA | 29.3

Same assay, conditions: Eterna round: R107; input ligand: none

Row | Sequence | apparent KD of MS2 coat protein [nM]
13 | CGUCGAAACUGAAGGAGCGAGAUGACAACAUUGGGUCUAACAUGAGGAUCACCCAUGUAAUCUCAGGUAGGUCGCGGUGACAACA [Exclusion Arginine B GF 17] | 38.9
14 | UGUAUGGACUGAAGGAGCGCAUCAAAAUAACAUGAGGAUCACCCAUGUAAGGCGAAAGCCGUGCAGGUAGGUCGCAGUCCAUACU [ArgBX 3] | 15.6
15 | UGAGUUCGCUGAUGGGCUAAGUCAGGUGAUACCAGCCACUCCCGCGGCCCUUGGCAGCACAUGAGGAUCACCCAUGUAGAACUUG [Vexetela] | 18.4
16 | GGGUCCGUCGGAAGGAGCGACAUGAGGAUCACCCAUGUCUCCCGUUAUGGGAGUUCUUUAGGUCAGGUAGGUCGCCGGCGGGUCC [#1 Exclusion - Arginine B Attempt #13 (Inspired by Omei)] | 141
17 | ACACAUGAGGAUCACCCAUGUGCGCUGGAAGGAGCGCAGAAUCAUGCAGGUAGGUCGCCAGUGCCCUCUACUAAAGGGAAAAGAG [Diatsoceri] | 72
18 | UAAUGUGAGAGAAGGAGCGGAGGUCUCGUUACAACAUGAGGAUCACCCAUGUAACGUACCGUCCAGGUAGGUCGCUCUCGGGCGC [lvacmullin] | 13.2
19 | GGGCGCGAGACGGCCGCCACUACACAUGAGGAUCACCCAUGUAUGGCAACAUGAGGAUCUGCCAUUAGGACCGGGUCAGGGCCCA | 31.2

Same assay, conditions: Eterna round: R107; input ligand: theophylline 20 uM

Row | Sequence | apparent KD of MS2 coat protein [nM]
20 | CGUCGAAACUGAAGGAGCGAGAUGACAACAUUGGGUCUAACAUGAGGAUCACCCAUGUAAUCUCAGGUAGGUCGCGGUGACAACA [Exclusion Arginine B GF 17] | 48.5
21 | AACAUGAGGAUCACCCAUGUGUCCUCGAAACGAGGACCGGUACGGCCGCCACUCGAAAGGUGUUGACGAAAAGUCAGCACCAAAA [Mat - Exclusion - Trytophan A - D15] | 351
22 | UGUAUGGACUGAAGGAGCGCAUCAAAAUAACAUGAGGAUCACCCAUGUAAGGCGAAAGCCGUGCAGGUAGGUCGCAGUCCAUACU [ArgBX 3] | 17.3
23 | GAGCUGAUGUAGGGUGGAUAUCCUUGAGAUACCAGUACAGAAAUGUACCCUUGGCAGCUCUUCCUUACAUGAGGAUCACCCAUGU [Ex Theophylline A 25] | 23.5
24 | UGAGUUCGCUGAUGGGCUAAGUCAGGUGAUACCAGCCACUCCCGCGGCCCUUGGCAGCACAUGAGGAUCACCCAUGUAGAACUUG [Vexetela] | 31.1
25 | GGGAAUGAACGUGAUACCAGAGAUCCGGUCUCCGUCAAUAUACAUGAGGAUCACCCAUGUCUCCCUUGGCAGCACCGUCAUCGGG [Exclusion Theophylline B GF 28] | 20.4
26 | CAGAACAUGAGGAUCACCCAUGUAAACGACCGAGGACCGGUACGGCCGCCACUCGAUAUGUCUUGAGGGAGAUAUGGAUUCACAU [theeternabot_sameState_MS2_Trp_A_46] | 51.4
27 | GGGUCCGUCGGAAGGAGCGACAUGAGGAUCACCCAUGUCUCCCGUUAUGGGAGUUCUUUAGGUCAGGUAGGUCGCCGGCGGGUCC [#1 Exclusion - Arginine B Attempt #13 (Inspired by Omei)] | 196
28 | ACACAUGAGGAUCACCCAUGUGCGCUGGAAGGAGCGCAGAAUCAUGCAGGUAGGUCGCCAGUGCCCUCUACUAAAGGGAAAAGAG [Diatsoceri] | 120
29 | UAAUGUGAGAGAAGGAGCGGAGGUCUCGUUACAACAUGAGGAUCACCCAUGUAACGUACCGUCCAGGUAGGUCGCUCUCGGGCGC [lvacmullin] | 24.4
30 | GGAACGAUCACUUCUUUAUCUAAGGCGGAUACCAGUCCUCGGUUUGACCCUUGGCAGCCGACAACAUGAGGAUCACCCAUGUUCU [theeternabot_exclusion_MS2_Theo_A_25] | 18.9
31 | GGGCGCGAGACGGCCGCCACUACACAUGAGGAUCACCCAUGUAUGGCAACAUGAGGAUCUGCCAUUAGGACCGGGUCAGGGCCCA | 53.4

Same assay, conditions: Eterna round: R107; input ligand: theophylline 2 mM

Row | Sequence | apparent KD of MS2 coat protein [nM]
32 | CGUCGAAACUGAAGGAGCGAGAUGACAACAUUGGGUCUAACAUGAGGAUCACCCAUGUAAUCUCAGGUAGGUCGCGGUGACAACA [Exclusion Arginine B GF 17] | 59.6
33 | AACAUGAGGAUCACCCAUGUGUCCUCGAAACGAGGACCGGUACGGCCGCCACUCGAAAGGUGUUGACGAAAAGUCAGCACCAAAA [Mat - Exclusion - Trytophan A - D15] | 412
34 | UGUAUGGACUGAAGGAGCGCAUCAAAAUAACAUGAGGAUCACCCAUGUAAGGCGAAAGCCGUGCAGGUAGGUCGCAGUCCAUACU [ArgBX 3] | 18.8
35 | UGAGUUCGCUGAUGGGCUAAGUCAGGUGAUACCAGCCACUCCCGCGGCCCUUGGCAGCACAUGAGGAUCACCCAUGUAGAACUUG [Vexetela] | 374
36 | CAGAACAUGAGGAUCACCCAUGUAAACGACCGAGGACCGGUACGGCCGCCACUCGAUAUGUCUUGAGGGAGAUAUGGAUUCACAU [theeternabot_sameState_MS2_Trp_A_46] | 44.4
37 | GGGUCCGUCGGAAGGAGCGACAUGAGGAUCACCCAUGUCUCCCGUUAUGGGAGUUCUUUAGGUCAGGUAGGUCGCCGGCGGGUCC [#1 Exclusion - Arginine B Attempt #13 (Inspired by Omei)] | 164
38 | ACACAUGAGGAUCACCCAUGUGCGCUGGAAGGAGCGCAGAAUCAUGCAGGUAGGUCGCCAGUGCCCUCUACUAAAGGGAAAAGAG [Diatsoceri] | 92.9
39 | UAAUGUGAGAGAAGGAGCGGAGGUCUCGUUACAACAUGAGGAUCACCCAUGUAACGUACCGUCCAGGUAGGUCGCUCUCGGGCGC [lvacmullin] | 17.2
40 | GGGCGCGAGACGGCCGCCACUACACAUGAGGAUCACCCAUGUAUGGCAACAUGAGGAUCUGCCAUUAGGACCGGGUCAGGGCCCA | 41.8

Same assay, conditions: Eterna round: R107; input ligand: tryptophan 2.4 mM

Row | Sequence | apparent KD of MS2 coat protein [nM]
41 | CGUCGAAACUGAAGGAGCGAGAUGACAACAUUGGGUCUAACAUGAGGAUCACCCAUGUAAUCUCAGGUAGGUCGCGGUGACAACA [Exclusion Arginine B GF 17] | 51.7
42 | UGUAUGGACUGAAGGAGCGCAUCAAAAUAACAUGAGGAUCACCCAUGUAAGGCGAAAGCCGUGCAGGUAGGUCGCAGUCCAUACU [ArgBX 3] | 15.3
43 | GAGCUGAUGUAGGGUGGAUAUCCUUGAGAUACCAGUACAGAAAUGUACCCUUGGCAGCUCUUCCUUACAUGAGGAUCACCCAUGU [Ex Theophylline A 25] | 20.4
44 | UGAGUUCGCUGAUGGGCUAAGUCAGGUGAUACCAGCCACUCCCGCGGCCCUUGGCAGCACAUGAGGAUCACCCAUGUAGAACUUG [Vexetela] | 20.2

— the supplement of paper PMC9170038
